We go through two molecules from article PMC9972942, “E6-Encoded by Cancer-Causing Human Papillomavirus Interacts with Aurora Kinase A To Promote HPV-Mediated Carcinogenesis” (Journal of Virology, 2023).

The target of experiment [1] is GST-tagged HPV16 E6 with its PDZ binding motif deleted (human papillomavirus type 16). The experiment is described as follows: pull-down; purified GST fusion proteins on glutathione-conjugated agarose incubated with equal amounts of in vitro-translated HA-AurA, 1 h at room temperature; washed 3 times with PBS containing 0.1% Tween 20; bound AurA detected by Western blotting with an HA-specific antibody; bands quantified with ImageJ relative to GST-16E6 (n = 3).

For experiment [2] the target is unchanged.
The target in experiment [3] is T1, GST-tagged HPV16 E6 S145A (human papillomavirus type 16, UniProt P03126 1-158, S145A). The experiment is described as follows: cell-based or functional assay.
The target of experiment [4] is GST-tagged HPV16 E6 wild type (human papillomavirus type 16, UniProt P03126 1-158). The experiment is described as follows: cell-based or functional assay.
Experiment [5] has as its target T2, GST-tagged HPV16 E6 T140A (human papillomavirus type 16, UniProt P03126 1-158, T140A). The experiment is described as follows: cell-based or functional assay.
Experiment [6] deals with T3, GST-tagged HPV16 E6 S150A (human papillomavirus type 16, UniProt P03126 1-158, S150A). The experiment is described as follows: cell-based or functional assay.
For experiment [7], the target named is T4, GST-tagged HPV16 E6 S89A (human papillomavirus type 16, UniProt P03126 1-158, S89A). The experiment is described as follows: cell-based or functional assay.
For experiment [8], the target named is T1, GST-tagged HPV16 E6 S145A. Put plainly: pull-down; purified GST fusion proteins on glutathione-conjugated agarose incubated with equal amounts of in vitro-translated HA-AurA, 1 h at room temperature; washed 3 times with PBS containing 0.1% Tween 20; bound AurA detected by Western blotting with an HA-specific antibody; bands quantified with ImageJ relative to GST-16E6 (n = 3). The following applies: one partner purified. A general note: Immunoblotting shows a protein as a band on a membrane.

The target of the next experiment is T5, GST-tagged HPV16 E7 (human papillomavirus type 16, UniProt P03129 1-98).
T5 construct: E7 oncoprotein of human papillomavirus type 16; also called GST-16 E7; HPVE7; source: E. coli, purified GST fusion protein
T5 sequence: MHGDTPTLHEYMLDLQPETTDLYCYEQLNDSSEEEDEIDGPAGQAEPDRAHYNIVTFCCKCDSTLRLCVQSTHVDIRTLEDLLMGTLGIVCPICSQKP
The experiment is described as above. The conditions noted are these: one partner purified.

In another experiment the target is T6, GST-tagged HPV58 E6 (human papillomavirus type 58, UniProt P26555 1-149).
T6 construct: E6 oncoprotein of human papillomavirus type 58; construct pGEX2T:HPV-58 E6; also called GST-58E6; source: E. coli, IPTG-induced, purified on glutathione-conjugated agarose
T6 sequence: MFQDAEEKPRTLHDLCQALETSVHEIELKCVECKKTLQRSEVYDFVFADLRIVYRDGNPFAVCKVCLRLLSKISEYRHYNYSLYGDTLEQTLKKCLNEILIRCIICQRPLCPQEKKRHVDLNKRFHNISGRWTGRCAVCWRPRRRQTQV
The experiment is described as above. The following applies: one partner purified.

The target in experiment [9] is T2, GST-tagged HPV16 E6 T140A. The description is as above. The following applies: one partner purified.
Another experiment deals with T7, GST-tagged HPV18 E6 (human papillomavirus type 18, UniProt P06463 1-158).
T7 construct: E6 oncoprotein of human papillomavirus type 18; construct pGEX2T:HPV-18 E6; also called GST-18E6; source: E. coli, IPTG-induced, purified on glutathione-conjugated agarose
Described as above. The following applies: one partner purified.

The target in experiment [10] is T3, GST-tagged HPV16 E6 S150A. The experiment is described as above. The conditions noted are these: one partner purified.
The target of the next experiment is T8, GST-tagged HPV11 E6 (human papillomavirus type 11, UniProt P04019 1-150).
T8 construct: E6 protein of human papillomavirus type 11 (low-risk type); construct pGEX2T:HPV-11 E6; also called GST-11E6; lr-HPV11E6; source: E. coli, IPTG-induced, purified on glutathione-conjugated agarose
T8 sequence: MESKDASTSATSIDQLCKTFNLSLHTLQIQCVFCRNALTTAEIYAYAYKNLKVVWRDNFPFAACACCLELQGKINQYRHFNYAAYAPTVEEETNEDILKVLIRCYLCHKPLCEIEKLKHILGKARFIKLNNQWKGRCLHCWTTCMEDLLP
The experiment is described as above. The following applies: one partner purified.

Experiment [11] has as its target T4, GST-tagged HPV16 E6 S89A. Described as above. The conditions noted are these: one partner purified.

The molecule “Aurora kinase A (HA-AurA, in vitro translated) (from UniProt O14965 1-403) (enzyme)” gave an AurA bound relative to GST-16E6 (%) in [1] of 87%. Further, the AurA kinase activity (ADP-Glo) of purified AurA in the presence of GST-E6 ΔPBM, relative to AurA with GST alone in experiment [2] is 0.85.

B1: Aurora kinase A (HA-AurA, in vitro translated) (enzyme, UniProt O14965 1-403, looked up)
chain: MDRSKENCISGPVKATAPVGGPKRVLVTQQFPCQNPLPVNSGQAQRVLCPSNSSQRIPLQAQKLVSSHKPVQNQKQKQLQATSVPHPVSRPLNNTQKSKQPLPSAPENNPEEELASKQKNEESKKRQWALEDFEIGRPLGKGKFGNVYLAREKQSKFILALKVLFKAQLEKAGVEHQLRREVEIQSHLRHPNILRLYGYFHDATRVYLILEYAPLGTVYRELQKLSKFDEQRTATYITELANALSYCHSKRVIHRDIKPENLLLGSAGELKIADFGWSVHAPSSRRTTLCGTLDYLPPEMIEGRMHDEKVDLWSLGVLCYEFLVGKPPFEANTYQETYKRISRVEFTFPDFVTEGARDLISRLLKHNPSQRPMLREVLEHPWITANSSKPSNCQNKESASKQS
notes: Aurora kinase A (AurA); plasmid pcDNA3.1:HA-AurA; the functional rows are written on this molecule; source: in vitro translated (TNT Coupled Reticulocyte Lysate System, Promega)
As for B1, the “AurA kinase activity (ADP-Glo) of purified AurA in the presence of GST-E6 S145A, relative to AurA with GST alone” value in [3] worked out at 0.68. The “AurA kinase activity (ADP-Glo) of purified AurA in the presence of GST-E6, relative to AurA with GST alone” value in [4] was found to be 0.85. Further, the “AurA kinase activity (ADP-Glo) of purified AurA in the presence of GST-E6 T140A, relative to AurA with GST alone” value in [5] came to 0.61. In addition, in experiment [6], the “AurA kinase activity (ADP-Glo) of purified AurA in the presence of GST-E6 S150A, relative to AurA with GST alone” value turned out to be 0.68. Further, in the experiment with GST-tagged HPV16 E6 S89A [7], the “AurA kinase activity (ADP-Glo) of purified AurA in the presence of GST-E6 S89A, relative to AurA with GST alone” value is 0.65. In addition, the “AurA bound relative to GST-16E6 wild type (%)” value in [8] was 24%; in experiment [9] it was 25.3%; in experiment [10] it was 56%; with GST-tagged HPV16 E6 S89A [11], 67.3%. In addition, the “AurA bound relative to GST-16E6 (%)” value in the experiment with GST-tagged HPV16 E7 worked out at 37.3%; with GST-tagged HPV58 E6, 158%; with GST-tagged HPV18 E6, 102%; with GST-tagged HPV11 E6 it was 12%.
